For 53 sequences, POZ domain bound results are on record in patent US7858322B2, “Method of determining inhibition of binding to TRPM7 protein” (NoNo, Inc., priority 2003, dated 2010).

Common to all, as to test: G assays, titrations or binding assays of peptides
One assay addresses T1, PAR3 d3 (Homo sapiens, UniProt Q8TEW0, R682S).
T1 construct: made in house; host or cells: E. coli (DH5α, BL21 or JM109)
The following applies: peptide demonstrated to bind PAR3 d3 in G assays.

The next assay addresses T2, INADL d3 (Homo sapiens, UniProt Q8NI35).
T2 construct: made in house; host or cells: E. coli (DH5α, BL21 or JM109)
T2 sequence (Q8NI35 with tags, fused parts or gaps): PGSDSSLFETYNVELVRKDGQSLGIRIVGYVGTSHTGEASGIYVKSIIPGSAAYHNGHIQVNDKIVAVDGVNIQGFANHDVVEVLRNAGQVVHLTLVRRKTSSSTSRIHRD
The following applies: peptide demonstrated to bind INADL d3 in G assays.

The next assay addresses T3, ZO-1 d2 (Homo sapiens, UniProt Q07157, DEL264-264).
T3 construct: made in house; host or cells: E. coli (DH5α, BL21 or JM109)
T3 sequence (Q07157 with tags, fused parts or gaps DEL264-264): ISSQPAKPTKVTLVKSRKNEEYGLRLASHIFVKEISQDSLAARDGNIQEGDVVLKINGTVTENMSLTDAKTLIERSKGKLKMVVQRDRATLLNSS
The following applies: peptide demonstrated to bind ZO-1 d2 in G assays.

The next assay concerns the target T4, RIM2 d1 (Homo sapiens, UniProt Q9UQ26).
T4 construct: made in house; host or cells: E. coli (DH5α, BL21 or JM109)
T4 sequence (Q9UQ26 632-757): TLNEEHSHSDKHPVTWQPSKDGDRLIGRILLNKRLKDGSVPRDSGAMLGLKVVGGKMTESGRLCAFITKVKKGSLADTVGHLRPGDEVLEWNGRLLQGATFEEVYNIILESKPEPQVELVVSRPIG
As to conditions: peptide demonstrated to bind RIM2 d1 in G assays.

No end group written: not given here. *: point of attachment. Biotin = O=C1N[C@H]2[C@H](CS[C@H]2CCCCC(=O)*)N1

T1 sequence (Q8TEW0 with tags, fused parts or gaps R682S): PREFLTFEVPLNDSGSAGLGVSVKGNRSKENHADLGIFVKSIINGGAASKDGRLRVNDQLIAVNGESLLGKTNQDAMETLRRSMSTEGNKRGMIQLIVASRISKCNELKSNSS
Experimental for INADL d3: (§1) In one aspect, the invention provides an assay in which a GST/PDZ fusion protein is immobilized on a surface (G assay). […] In a preferred embodiment, the assay is carried out as follows:
(§2) (1) A PDZ-domain polypeptide is bound to a surface, e.g. a protein binding surface. In a preferred embodiment, a GST/PDZ fusion protein containing one or more PDZ domains is bound to a polystyrene 96-well plate. […] In one embodiment, the GST/PDZ fusion protein is bound via an anti-GST antibody that is coated onto the 96-well plate. Adequate binding to the plate can be achieved when: • a. 100 μl per well of 5 μg/ml goat anti-GST polyclonal antibody (Pierce) in PBS is added to a polystyrene 96-well plate (e.g., Nunc Polysorp) at 4° C. for 12 hours. • b. The plate is blocked by addition of 200 μl per well of PBS/BSA for 2 hours at 4° C. • c. The plate is washed 3 times with PBS. • d. 50 μl per well of 5 μg/ml GST/PDZ fusion protein) or, as a negative control, GST polypeptide alone (i.e. not a fusion protein) in PBS/BSA is added to the plate for 2 hours at 4° C. • e. the plate is again washed 3 times with PBS.
(§3) (2) Biotinylated PL peptides are allowed to react with the surface by addition of 50 μl per well of 20 μM solution of the biotinylated peptide in PBS/BSA for 10 minutes at 4° C., followed by an additional 20 minute incubation at 25° C. The plate is washed 3 times with ice cold PBS.
(§4) (3) The binding of the biotinylated peptide to the GST/PDZ fusion protein surface can be detected using a variety of methods and detectors known to one of skill in the art. In one embodiment, 100 μl per well of 0.5 μg/ml streptavidin-horseradish peroxidase (HRP) conjugate dissolved in BSA/PBS is added and allowed to react for 20 minutes at 4° C. The plate is then washed 5 times with 50 mM Tris pH 8.0 containing 0.2% Tween 20, and developed by addition of 100 μl per well of HRP-substrate solution (TMB, Dako) for 20 minutes at room temperature (RT). The reaction of the HRP and its substrate is terminated by addition of 100 μl per well of 1 M sulfuric acid, and the optical density (O.D.) of each well of the plate is read at 450 um.
(§5) (4) Specific binding of a PL peptide and a PDZ domain polypeptide is determined by comparing the signal from the well(s) in which the PL peptide and PDZ domain polypeptide are combined, with the background signal(s). […] Typically a specific or selective reaction will be at least twice background signal, more typically more than 5 times background, and most typically 10 or more times the background signal. […] Correspondingly, a statistical test (e.g. a T-test) comparing repeated measurements of the signal with repeated measurements of the background will result in a p-value <0.05, more typically a p-value <0.01, and most typically a p-value <0.001 or less. As noted, in an embodiment of the G assay, the signal from binding of a given PL peptide to immobilized (surface bound) GST polypeptide alone is one suitable negative control (sometimes referred to as B1). Because all measurement are done in multiples (i.e. at least duplicate) the arithmetic mean (or, equivalently, average.) of several measurements is used in determining the binding, and the standard error of the mean is used in determining the probable error in the measurement of the binding. The standard error of the mean of N measurements equals the square root of the following: the sum of the squares of the difference between each measurement and the mean, divided by the product of (N) and (N−1). Thus, in one embodiment, specific binding of the PDZ protein to the platebound peptide is determined by comparing the mean signal (“mean S”) and standard error of the signal (“SE”) for a particular PL-PDZ combination with the mean B1.
Experimental for PAR3 d3: as §1, §2, §3, §4, §5
Experimental for RIM2 d1: as §1, §2, §3, §4, §5

As to “DGGARTEDEVQSYPSKHDYV (Biotin-DGGARTEDEVQSYPSKHDYV)”, the POZ domain bound result with PAR3 d3 is given as “PAR3 D3”.
As for “ELLQFCRTPNPALKNGQYWV (Biotin-ELLQFCRTPNPALKNGQYWV)”, the POZ domain bound result was “INADL D3” with INADL d3, “PAR3 D3” with PAR3 d3 and “ZO-1 D2” with ZO-1 d2.
On to ENLELPVNPSSWSERISSV, for which the POZ domain bound entry with INADL d3 is “INADL D3”.
Turning to “HAMNAAPRAMENAPALRTSH (Biotin-HAMNAAPRAMENAPALRTSH)”, in the assay with INADL d3, the POZ domain bound entry is “INADL D3”.
As for “KAGYRAPRSYPKSNSSKEYV (Biotin-KAGYRAPRSYPKSNSSKEYV)”, the POZ domain bound entry with PAR3 d3 was “PAR3 D3”.
On to “KTMPAAMFRLLTGQETPLYI (Biotin-KTMPAAMFRLLTGQETPLYI)”, for which the POZ domain bound result with PAR3 d3 is reported as “PAR3 D3”.
Same read-out and setting: the value for “KTMPAAMYRLLTAQEQPVYI (Biotin-KTMPAAMYRLLTAQEQPVYI)” was “PAR3 D3”.
As for “KTMPAATYRLLTGQEQPVYL (Biotin-KTMPAATYRLLTGQEQPVYL)”, the POZ domain bound result in the assay with PAR3 d3 is “PAR3 D3”.
The same measure, in the same setting: the value for “KYSAPRRPTATGDYDKKNYV (Biotin-KYSAPRRPTATGDYDKKNYV)” was “PAR3 D3”.
Turning to “LASKSAEEGKQIPDSLSTDL (Biotin-LASKSAEEGKQIPDSLSTDL)”, the POZ domain bound entry with INADL d3 is recorded as “INADL D3”; with PAR3 d3, “PAR3 D3”.
With “LERTSSVSPSTAEPELSIVF (Biotin-LERTSSVSPSTAEPELSIVF)”, the POZ domain bound result with PAR3 d3 is “PAR3 D3”.
In the case of “LNSCSNRRVYKKMPSIESDV (Biotin-LNSCSNRRVYKKMPSIESDV)”, the POZ domain bound entry was “INADL D3” with INADL d3 and “ZO-1 D2” with ZO-1 d2.
As for “LQFHRGSRAQSFLQTETSVI (Biotin-LQFHRGSRAQSFLQTETSVI)”, the POZ domain bound result in the assay with INADL d3 is “INADL D3”; in the assay with PAR3 d3 it was “PAR3 D3”.
For the sequence NYKLNTDHAGSNDNIALLVQ, the POZ domain bound entry with RIM2 d1 is reported as “RIM2 D1”; with ZO-1 d2, “ZO-1 D2”.
“PGQPPKVKSEFNSYSLTGYV (Biotin-PGQPPKVKSEFNSYSLTGYV)”: the POZ domain bound entry was “INADL D3” in the assay with INADL d3 and “PAR3 D3” with PAR3 d3.
Regarding “PSSRASSRASSRPRPDDLEI (Biotin-PSSRASSRASSRPRPDDLEI)”, the POZ domain bound result with ZO-1 d2 is “ZO-1 D2”.
As for “QGDPALQDAGDSSRKEYFI (Biotin-QGDPALQDAGDSSRKEYFI)”, the POZ domain bound entry in the assay with PAR3 d3 is given as “PAR3 D3”.
As for “RRRRRRRGNTTDKELEVLSL (Biotin-RRRRRRRGNTTDKELEVLSL)”, the POZ domain bound entry with ZO-1 d2 is “ZO-1 D2”.
On the same count and under the same terms, the value for “RRRRRRRGTNPAVAATSANL (Biotin-RRRRRRRGTNPAVAATSANL)” was “ZO-1 D2”.
For “RSGATIPLVGQDIIDLQTEV (Biotin-RSGATIPLVGQDIIDLQTEV)”, the POZ domain bound entry with INADL d3 is given as “INADL D3”.
For “SLIGPVQKEYQRELGKLSSP (Biotin-SLIGPVQKEYQRELGKLSSP)”, the POZ domain bound result in the assay with INADL d3 is given as “INADL D3”.
With “SSPDSSYQGKGFVMSRAMYV (Biotin-SSPDSSYQGKGFVMSRAMYV)”, the POZ domain bound result in the assay with PAR3 d3 is “PAR3 D3”.
On to “SSSRRDSSWSETSEASYSGL (Biotin-SSSRRDSSWSETSEASYSGL)”, for which the POZ domain bound result is reported as “RIM2 D1” in the assay with RIM2 d1 and “ZO-1 D2” in the assay with ZO-1 d2.
As for “STDNLVRPFMDTLASHQLYI (Biotin-STDNLVRPFMDTLASHQLYI)”, the POZ domain bound result is given as “INADL D3” with INADL d3 and “PAR3 D3” in the assay with PAR3 d3.
On to “TEGNESSEATSPVNAIYSLA (Biotin-TEGNESSEATSPVNAIYSLA)”, for which the POZ domain bound entry with ZO-1 d2 is listed as “ZO-1 D2”.
As to “TTNNNPNSAVNIKKIFTDV (Biotin-TTNNNPNSAVNIKKIFTDV)”, the results for the POZ domain bound entry with INADL d3 and with ZO-1 d2 were “INADL D3” and “ZO-1 D2”, respectively.
Turning to “VPSDNIDSQGRNASTNDSLL (Biotin-VPSDNIDSQGRNASTNDSLL)”, the POZ domain bound result with INADL d3 is reported as “INADL D3”.
On to “YGRKKRRQRRRARGDRKKIV (Biotin-YGRKKRRQRRRARGDRKKIV)”, for which, in the assay with RIM2 d1, the POZ domain bound result is “RIM2 D1”.
For the sequence YGRKKRRQRRRARGDRKRIV, the POZ domain bound entry with RIM2 d1 is reported as “RIM2 D1”; with ZO-1 d2, “ZO-1 D2”.
On to “YGRKKRRQRRRARGDRKRWA (Biotin-YGRKKRRQRRRARGDRKRWA)”, for which the POZ domain bound entry in the assay with RIM2 d1 is reported as “RIM2 D1”; with ZO-1 d2, “ZO-1 D2”.
For “YGRKKRRQRRRARGDRKRWL (Biotin-YGRKKRRQRRRARGDRKRWL)” the same measures were “RIM2 D1” and “ZO-1 D2”.
With “YGRKKRRQRRRARGDRLEIV (Biotin-YGRKKRRQRRRARGDRLEIV)”, in the assay with RIM2 d1, the POZ domain bound result was “RIM2 D1”.
On the same count and under the same terms, the value for “YGRKKRRQRRRARGDRRRIV (Biotin-YGRKKRRQRRRARGDRRRIV)” was “RIM2 D1”; that for “YGRKKRRQRRRARGDVRLML (Biotin-YGRKKRRQRRRARGDVRLML)” was “RIM2 D1”.
Turning to “YGRKKRRQRRRARSDRGIWA (Biotin-YGRKKRRQRRRARSDRGIWA)”, the POZ domain bound entry with RIM2 d1 is “RIM2 D1”; with ZO-1 d2 it was “ZO-1 D2”.
As to “YGRKKRRQRRRARSDRKRIA (Biotin-YGRKKRRQRRRARSDRKRIA)”, in the assay with RIM2 d1, the POZ domain bound entry is “RIM2 D1”.
Turning to “YGRKKRRQRRRARSDRKRIV (Biotin-YGRKKRRQRRRARSDRKRIV)”, the POZ domain bound result with RIM2 d1 is listed as “RIM2 D1”.
Turning to “YGRKKRRQRRRAVAAASANL (Biotin-YGRKKRRQRRRAVAAASANL)”, the figures for the POZ domain bound entry in the assay with RIM2 d1 and with ZO-1 d2 were “RIM2 D1” and “ZO-1 D2”, respectively.
Consider “YGRKKRRQRRRAVAATGIWA (Biotin-YGRKKRRQRRRAVAATGIWA)”, for which the POZ domain bound entry with RIM2 d1 is recorded as “RIM2 D1”.
For the sequence “YGRKKRRQRRRAVAATYSNL (Biotin-YGRKKRRQRRRAVAATYSNL)”, the POZ domain bound entry is reported as “RIM2 D1” in the assay with RIM2 d1 and “ZO-1 D2” with ZO-1 d2.
Regarding YGRKKRRQRRRDKELEVLSL, the POZ domain bound result on ZO-1 d2 is reported as “ZO-1 D2”.
On to YGRKKRRQRRRGASADSTQA, for which the POZ domain bound result on PAR3 d3 is on record as “PAR3 D3”; on RIM2 d1 it was “RIM2 D1”; on ZO-1 d2, “ZO-1 D2”.
On to “YGRKKRRQRRRGMTSSSSVV (Biotin-YGRKKRRQRRRGMTSSSSVV)”, for which the POZ domain bound entry with RIM2 d1 is given as “RIM2 D1”.
On the same count and under the same terms, the value for “YGRKKRRQRRRLQRRRETQV (Biotin-YGRKKRRQRRRLQRRRETQV)” was “RIM2 D1”.
“YGRKKRRQRRRQDEEEGIWA (Biotin-YGRKKRRQRRRQDEEEGIWA)”: the POZ domain bound entry in the assay with RIM2 d1 was “RIM2 D1”; with ZO-1 d2, “ZO-1 D2”.
As to “YGRKKRRQRRRQDEEEGIWS (Biotin-YGRKKRRQRRRQDEEEGIWS)”, the POZ domain bound entry with RIM2 d1 was “RIM2 D1”.
For “YGRKKRRQRRRQDEEETIWA (Biotin-YGRKKRRQRRRQDEEETIWA)”, in the assay with RIM2 d1, the POZ domain bound result was “RIM2 D1”.
Still for that read-out and setting: the value for “YGRKKRRQRRRQDERVETRV (Biotin-YGRKKRRQRRRQDERVETRV)” was “RIM2 D1”.
Turning to YGRKKRRQRRRSEGVPDLLV, the POZ domain bound result is “PAR3 D3” on PAR3 d3 and “ZO-1 D2” on ZO-1 d2.
As for “YGRKKRRQRRRSRTVREIWA (Biotin-YGRKKRRQRRRSRTVREIWA)”, the POZ domain bound entry with RIM2 d1 is recorded as “RIM2 D1”.
Still for that read-out and setting: the value for “YGRKKRRQRRRSVTSTSINL (Biotin-YGRKKRRQRRRSVTSTSINL)” was “RIM2 D1”.
Consider “YSATYSELEDPGEMSPPIDL (Biotin-YSATYSELEDPGEMSPPIDL)”, for which the POZ domain bound entry in the assay with INADL d3 is “INADL D3”.
As to YVYSRVKNLNSSEGVPDLLV, the POZ domain bound result with ZO-1 d2 was “ZO-1 D2”.
